From patent US9005614B2, “PRLR-specific antibody and uses thereof” (Novartis AG, priority 2006, dated 2015)

T1: cynomolgus PRLR ECD (Macaca fascicularis, UniProt A0A2K5WXK1)
T1 construct: antibodies against human and cynomolgus PRLR ECD
T1 sequence (A0A2K5WXK1 25-234): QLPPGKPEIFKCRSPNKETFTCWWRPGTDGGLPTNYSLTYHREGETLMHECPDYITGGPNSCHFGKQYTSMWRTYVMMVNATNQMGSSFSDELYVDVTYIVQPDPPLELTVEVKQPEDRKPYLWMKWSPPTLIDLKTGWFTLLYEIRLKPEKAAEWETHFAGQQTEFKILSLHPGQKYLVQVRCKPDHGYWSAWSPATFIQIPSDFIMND

T2: human PRLR ECD (Homo sapiens, UniProt P16471)
T2 construct: His6 (C); made in house; host or cells: Tn5 insect cells, baculovirus
T2 sequence (P16471 25-234): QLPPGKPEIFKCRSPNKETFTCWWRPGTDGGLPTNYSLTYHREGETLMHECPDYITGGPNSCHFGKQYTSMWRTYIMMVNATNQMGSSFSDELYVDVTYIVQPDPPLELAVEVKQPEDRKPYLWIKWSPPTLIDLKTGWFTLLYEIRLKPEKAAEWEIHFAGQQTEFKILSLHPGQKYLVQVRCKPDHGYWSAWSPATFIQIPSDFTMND

T3: Cyno PRLR (Macaca fascicularis, UniProt A0A2K5WXK1)
T3 construct: antibodies against human and cynomolgus PRLR ECD
T3 sequence (A0A2K5WXK1 25-234): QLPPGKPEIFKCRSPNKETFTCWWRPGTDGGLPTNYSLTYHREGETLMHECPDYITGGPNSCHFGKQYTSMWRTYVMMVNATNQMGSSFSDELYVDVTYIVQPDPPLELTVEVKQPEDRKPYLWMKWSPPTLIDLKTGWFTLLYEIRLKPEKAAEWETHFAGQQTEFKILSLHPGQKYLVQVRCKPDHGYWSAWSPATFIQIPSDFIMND

T4: Human PRLR (Homo sapiens, UniProt P16471)
T4 construct: His6 (C); made in house; host or cells: Tn5 insect cells, baculovirus
T4 sequence (P16471 25-234): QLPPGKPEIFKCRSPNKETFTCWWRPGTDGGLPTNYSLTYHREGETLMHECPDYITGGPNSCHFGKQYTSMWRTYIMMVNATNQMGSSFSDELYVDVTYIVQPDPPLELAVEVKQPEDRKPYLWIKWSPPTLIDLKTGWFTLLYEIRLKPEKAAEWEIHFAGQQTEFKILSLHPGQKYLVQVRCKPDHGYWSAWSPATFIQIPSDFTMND

T5: Mouse PRLR (Mus musculus, UniProt Q08501)
T5 sequence (Q08501 20-229 limits assumed): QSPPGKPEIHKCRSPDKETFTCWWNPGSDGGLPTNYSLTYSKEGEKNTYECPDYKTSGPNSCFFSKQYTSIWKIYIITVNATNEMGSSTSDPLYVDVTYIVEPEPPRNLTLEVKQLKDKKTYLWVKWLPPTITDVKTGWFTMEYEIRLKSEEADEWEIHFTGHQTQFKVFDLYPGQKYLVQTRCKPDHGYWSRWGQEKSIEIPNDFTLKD

T6: Rat PRLR (Rattus norvegicus, UniProt P05710)
T6 sequence (P05710 20-229 limits assumed): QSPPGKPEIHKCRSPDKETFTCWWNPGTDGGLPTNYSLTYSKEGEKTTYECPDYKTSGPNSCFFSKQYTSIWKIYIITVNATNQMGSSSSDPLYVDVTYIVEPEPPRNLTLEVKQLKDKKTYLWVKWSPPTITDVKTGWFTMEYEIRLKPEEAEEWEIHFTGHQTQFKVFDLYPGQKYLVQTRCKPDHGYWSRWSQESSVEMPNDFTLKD


How the values were obtained:
[1] = target: T1, cynomolgus PRLR ECD; experiment: Biacore kinetic titration, antibody captured on Protein A/G; format: binding; details: Table 9, Cyno PRLR ECD; unit not given
Description: (§1) Affinity of the chimerized and HUMAN ENGINEERED™ antibodies determined by Biacore analysis. Briefly, a CM5 sensor chip (Biacore) immobilized with Protein A/G (Pierce) via NHS/EDC was used to capture approximately 600 RU of antibody on the chip surface. Five concentrations of PRLR ECD beginning at 5 ug/mL (185 nM) and serially diluted at 5× dilution to 0.3 nM were injected from lowest to highest concentration in the kinetic titration injection mode, and 15 minutes of dissociation data was collected. The experiments were double-referenced, i.e. an adjacent flow cell response was subtracted automatically, and the response from a buffer injection experiment was subtracted from the experimental data set. Kinetic and derived parameters (ka, kd and KD) were determined by fitting to a 1:1 Langmuir model using BiaEval software customized to the kinetic titration injection mode. Affinity measurements of both chimeric and all HUMAN ENGINEERED™ antibodies against human and cynomolgus PRLR ECD are summarized in Table 9 and Table 10.

[2] = target: T2, human PRLR ECD; experiment: as above; format: binding; details: Table 9, Human PRLR ECD; unit not given
Description: as §1

[3] = target: T3, Cyno PRLR; experiment: Cross species affinity analysis on covalently immobilized antibodies; format: binding, cynomolgus; details: Table 11, Cyno; covalently immobilized antibody; in 1/s
Description: (§2) In order to compare rat and mouse cross reactivity using covalently immobilized antibodies, a CM4 chip was coupled with he.06.642-2 and he.06.275-4 antibodies via standard EDC-NHS amine coupling chemistries according to the recommended protocol from BIACORE® Inc. The PRLR ECD injections were performed at five concentrations in a three fold titration series starting at 111 nM and going down to 1.37 nM. Regeneration was performed with Glycine pH3.0. The affinity of all of the HE variants of XHA.06.642 and XHA.06.275 are very similar to the affinity of the parental chimeric antibody. […] Antibody he.06.275-4 binds to Cyno PRLR with 5 fold weaker affinity than Human PRLR.

[4] = target: T4, Human PRLR; experiment: as above; format: binding; details: Table 11, Human; covalently immobilized antibody; in 1/s
Description: as §2

[5] = target: T5, Mouse PRLR; experiment: as above; format: binding; details: for binding to Mouse PRLR (in words): compared with human PRLR
Description: as §2

[6] = target: T6, Rat PRLR; experiment: as above; format: binding; details: for binding to Rat PRLR (in words): compared with human PRLR
Description: as §2

[7] = tested on: PRL-induced phospho-PRLR and phospho-Stat5; experiment: PRL-induced PRLR and STAT5 phosphorylation in T47D cells by Western blot; format: cell-based, human
Description: Cells were pre-treated with 1 ug/ml mAb prior to 30 min stimulation with 50 ng/ml PRL. Lysates were analyzed for the presence of phospho-PRLR using antibodies specific for phosphotyrosine residues 546 and 611 of the PRLR.
T47D cells were incubated with 1 or 10 ug/ml mAb, then treated with or without PRL (50 ng/ml) for an additional 30 min.
The ability of selected antibodies to inhibit PRL-induced phosphorylation of STAT5 and AKT was determined as follows. Cells were seeded overnight in 6 well plates at a density of 3×10^5 cells/ml in phenol red-free RPMI/10% FBS. The following day, media was replaced with serum-free RPMI for 30 min. In some experiments, anti-PRLR or non-specific control antibodies were incubated with cells during this serum starvation period. 50 ng/ml PRL was then added to wells for 30 min, after which cells were rinsed once in PBS and lysed in a buffer consisting of 50 mM Tris-HCl, pH7.5, 150 mM NaCl, 1 mM EDTA, 1% NP-40, 1 mM Na3OV4, 50 mM NaF, 0.25% deoxycholate and protease inhibitors. Tubes were spun down at 14,000 rpm in a refrigerated microfuge and lysates were quantitated using BCA reagents. 30 μg of whole cell lysate was separated by 10% SDS-PAGE and proteins were detected using phospho-specific antibodies for STAT5A/B (Y694/Y699, Upstate) or PRLR (Y546/Y611, in-house) and ECL. Equal protein loading was determined by staining with antibodies specific for total STAT5 (BD) or PRLR (Zymed) or AKT (Cell Signalling). Results of a representative assay of effect of a PRLR-specific antibody on PRLR intracellular phosphorylation are shown in FIG. 6.
Chimeric mAbs were analyzed for their ability to inhibit the proliferation and survival of BaF/PRLR cells [FIG. 11]. […] In order to assess the PRLR signal-neutralizing capability of the chimeric antibodies in a human breast cancer model, T47D cells were treated with 1 ug/ml mAb for 30 min prior to PRL stimulation. At the same time, additional cell samples were incubated with antibody alone to examine any potential agonism gained through chimerization of the antibody candidates.
Antibodies were assessed in target modulation and cell proliferation assays. FIG. 16 depicts the effect of 2 concentrations of chXHA.06.642 and HUMAN ENGINEERED™ antibodies he.06.642-1 and he.06.642-2, on PRL-induced Stat5 phosphorylation in T47D cells. […] Similar results were found for chXHA.06.275 variants.

[8] = Solubility in PBS and aggregation state by size exclusion chromatography; format: physicochemical
Description: Elution of the major peak was by […] glycine pH 3.5. Pooled material was dialyzed into PBS and concentrated in centrifugal concentrators with a nominal molecular weight cut-off of 30 kD. Final purities were >95% and overall yields were approximately 60%. The final pools were assayed for endotoxin using an Endosafe PTS LAL unit (Charles River) or the QCL-1000 Chromogenic LAL Endpoint Assay (Lonza), and the results were <0.05 EU/mg (below the limit of detection) for all the antibodies. Aggregation state of the chimeric antibody he.06.642-2 was determined to be monomeric by SEC on a Superdex 200 10/300 GL column (GE Healthcare).

| Molecule | ka [1] | kd [1] | ka [2] | kd [2] | koff [3] | koff [4] | Murine KD/Human KD [5] | binding to Mouse PRLR (in words) [5] | binding to Rat PRLR (in words) [6] | koff ([5]; Table 11, Murin, covalently immobilized antibody, in 1/s) | Rat KD/Human KD [6] | koff ([6]; Table 11, Rat, covalently immobilized antibody, in 1/s) | agonism: induction of PRLR signaling by antibody alone ([7]; T47D cells treated with mAb alone) | block of PRL-induced signaling (phospho-PRLR, phospho-Stat5) ([7]; T47D cells, 1 or 10 ug/ml mAb, then PRL 50 ng/ml 30 min) | aggregation state by size exclusion chromatography [8] |
| --- | --- | --- | --- | --- | --- | --- | --- | --- | --- | --- | --- | --- | --- | --- | --- |
| he.06.275-4: HUMAN-ENGINEERED antibody from XHA.06.275; variable regions SEQ ID NO: 92 and SEQ ID NO: 94 by order of listing (antibody, V domains shown) VH: QVQLQESGPGLVKPSQTLSLTCTVSGYSITSDYAWNWIRQFPGKGLEWMGYISYSGSTSYNPSLKSRITISRDTSKNQFSLQLNSVTAADTAVYFCARDYGYVFDYWGQGTTLTVSS VL: DVQITQSPSSLSASPGDRITLTCRASKNIYKYLAWYQEKPGKANKLLIYSGSTLHSGIPSRFSGSGSGTDFTLTISSLQPEDFAMYYCQQHNDYPYTFGQGTKLEIK | 3.6E+05 | 6.0E−04 | 6.2E+05 | 3.2E−04 | 8.2E−04 | 4.5E−04 | Murine KD/Human KD = 13,548 | does not bind effectively | does not bind effectively |  |  |  |  |  |  |
| he.06.642-2: HUMAN-ENGINEERED antibody from XHA.06.642; variable regions SEQ ID NO: 88 and SEQ ID NO: 90 by order of listing (antibody, V domains shown) VH: EVQLVESGGGLVQPGGSLRLSCAVSGFTFSSYGMSWVRQAPGKGLEWVATVSSGGTYTYYPDSVKGRFTISRDNSKNTLYLQMNSLRAEDTAVYYCARHRGNYYATYYYAMDYWGQGTLVTVSS VL: DIVLTQSPDSLAVSLGERATINCKASKSVSTSGYTYMHWYQQKPGQPPKLLIYLASNRESGVPDRFSGSGSGTDFTLTISPVQAEDVATYYCQHSGELPPSFGQGTKLEIK | 1.8E+05 | 8.3E−03 | 1.7E+05 | 5.3E−04 | 6.0E−03 | 9.1E−04 | Murine KD/Human KD = 1 | equivalent affinity | equivalent affinity | 3.1E−04 | Rat KD/Human KD = 0.75 | 1.4E−04 | neither antibody displayed any agonistic activity | complete p-Stat5 signal abrogation | monomeric |
